Assay results from US20170106051A1 (BAYLOR RESEARCH INSTITUTE, published 2017).

T1: human DCIR (human, UniProt Q9UMR7 1-237)
T1 construct: whole, on cells; The assay was on primary human blood DCs
T1 sequence (looked up): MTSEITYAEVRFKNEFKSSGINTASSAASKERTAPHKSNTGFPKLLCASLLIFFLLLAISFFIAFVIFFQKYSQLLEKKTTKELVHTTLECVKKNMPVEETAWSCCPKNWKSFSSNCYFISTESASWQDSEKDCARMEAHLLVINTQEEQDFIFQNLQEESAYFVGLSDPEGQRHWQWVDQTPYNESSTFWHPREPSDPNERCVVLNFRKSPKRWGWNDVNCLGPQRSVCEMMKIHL

B1: mAnti-DCIR_9E8_H-LV-hIgG4H-C-Flex-v1-hIL-10 antibody (antibody)
heavy: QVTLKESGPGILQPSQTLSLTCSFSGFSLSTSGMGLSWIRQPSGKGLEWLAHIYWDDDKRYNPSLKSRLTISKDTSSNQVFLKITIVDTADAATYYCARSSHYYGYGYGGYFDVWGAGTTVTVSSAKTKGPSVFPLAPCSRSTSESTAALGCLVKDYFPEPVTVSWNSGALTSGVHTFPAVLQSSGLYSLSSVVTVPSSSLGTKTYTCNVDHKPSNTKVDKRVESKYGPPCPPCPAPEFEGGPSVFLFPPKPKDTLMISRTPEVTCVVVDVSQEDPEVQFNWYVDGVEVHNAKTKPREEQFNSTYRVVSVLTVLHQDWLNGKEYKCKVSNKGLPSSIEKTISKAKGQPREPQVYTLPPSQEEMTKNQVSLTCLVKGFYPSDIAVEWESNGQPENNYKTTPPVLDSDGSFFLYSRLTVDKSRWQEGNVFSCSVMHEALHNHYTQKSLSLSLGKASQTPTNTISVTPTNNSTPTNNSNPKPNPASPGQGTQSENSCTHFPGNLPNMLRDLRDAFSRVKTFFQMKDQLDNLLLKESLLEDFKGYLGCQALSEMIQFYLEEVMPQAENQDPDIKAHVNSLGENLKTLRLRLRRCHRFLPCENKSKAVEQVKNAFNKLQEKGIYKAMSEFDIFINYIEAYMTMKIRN
light: NIVLTQSPASLAVSLGQRATISCRASESIHSYGNSFLHWYQQKPGQPPKLLIYLASNLESGVPARFSGSGSRTDFTLTIDPVEADDAATYYCQQNNEDPWTFGGGTKLEIKRTVAAPSVFIFPPSDEQLKSGTASVVCLLNNFYPREAKVQWKVDNALQSGNSQESVTEQDSKDSTYSLSSTLTLSKADYEKHKVYACEVTHQGLSSPVTKSFNRGEC
notes: Mouse/human chimeric IgG4 kappa antibody with human IL-10 fused through a linker to the C-terminus of the heavy chain; also called anti-DCIR (9E8)-IL-10; Anti-DCIR-9E8-hIL-10
B2: manti-hCD40_24A3.3F1_H-LV-hIgG4H-C-Flex-v1-hIL-10 antibody (antibody)
heavy: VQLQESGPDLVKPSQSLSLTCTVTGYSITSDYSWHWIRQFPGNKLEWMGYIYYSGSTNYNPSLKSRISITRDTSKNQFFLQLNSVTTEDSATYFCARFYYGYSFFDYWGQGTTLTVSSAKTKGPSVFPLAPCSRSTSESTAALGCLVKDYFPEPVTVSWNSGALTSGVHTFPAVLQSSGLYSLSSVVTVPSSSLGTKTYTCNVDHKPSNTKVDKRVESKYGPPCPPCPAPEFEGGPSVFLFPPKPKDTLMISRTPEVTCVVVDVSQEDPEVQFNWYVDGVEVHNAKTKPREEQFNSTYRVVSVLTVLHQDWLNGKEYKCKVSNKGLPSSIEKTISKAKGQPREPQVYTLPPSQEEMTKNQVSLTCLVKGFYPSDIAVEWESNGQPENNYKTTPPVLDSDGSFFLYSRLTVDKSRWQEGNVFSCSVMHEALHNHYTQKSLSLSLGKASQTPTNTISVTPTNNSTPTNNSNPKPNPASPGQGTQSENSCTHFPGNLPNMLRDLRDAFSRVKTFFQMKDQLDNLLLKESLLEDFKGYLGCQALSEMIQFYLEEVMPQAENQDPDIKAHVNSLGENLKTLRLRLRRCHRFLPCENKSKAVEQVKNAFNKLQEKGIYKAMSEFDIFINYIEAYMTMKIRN
light: QIVLTQSPAFMSASPGEKVTMTCSASSSVSYMHWYQQKSGTSPKRWIYDTSKLASGVPARFSGSGSGTSYSLTISSMEAEDAATYYCQQWSSNPLTFGAGTKLEIKRTVAAPSVFIFPPSDEQLKSGTASVVCLLNNFYPREAKVQWKVDNALQSGNSQESVTEQDSKDSTYSLSSTLTLSKADYEKHKVYACEVTHQGLSSPVTKSFNRGECAS
notes: Mouse/human chimeric IgG4 kappa antibody with human IL-10 fused through a linker to the C-terminus of the heavy chain; also called anti-CD40 (24A3)-IL-10; Anti-CD40-24A3-hIL-10

What was measured:
human DCIR = target: T1, human DCIR; test: flow cytometry on purified human blood pDCs, detection with anti-human IL-10
Method: (§1) The ability of antibody-IL-10 fusion proteins to bind to human DCs was measured. Both myeloid DC (mDCs) and plasmacytoid DCs (pDCs) were purified from human blood. DCs were incubated for 20 min in ice in the presence of different concentrations of recombinant fusion proteins of antibody and IL-10 (FIG. 1). After vigorous washing, DCs were further stained with anti-human IL-10 to detect surface bound antibody-IL-10 fusion proteins using flow cytometry.

human CD40 = target: T2, human CD40 (human, UniProt P25942 21-277); test: flow cytometry on purified human blood mDCs, detection with anti-human IL-10
T2 construct: whole, on cells; The assay was on primary human blood DCs; also called hCD40
Method: as §1

T2 sequence (P25942 21-277): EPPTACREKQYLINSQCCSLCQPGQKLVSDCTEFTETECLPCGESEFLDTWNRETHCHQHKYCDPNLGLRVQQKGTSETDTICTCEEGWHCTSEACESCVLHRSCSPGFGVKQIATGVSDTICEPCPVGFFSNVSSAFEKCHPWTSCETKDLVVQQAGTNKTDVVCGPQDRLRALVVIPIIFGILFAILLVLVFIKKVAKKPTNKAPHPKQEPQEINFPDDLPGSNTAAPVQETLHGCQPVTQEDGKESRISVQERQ

| Binder | binding result (human DCIR) | binding result (human CD40) |
| --- | --- | --- |
| B1 | binds |  |
| B2 |  | binds |
